Reference: a protein production outcome set (Wang et al. 2014)

Experiment: label from the status in PepcDB records

Sequence | protein production
MAEEKVKDEAMQIMGMFQILPRLVVFDLDYTLWPFYCECRSKREMPSMYPQAKGILSALKEKGIEMAIASRSPTSDIANTFLDKLNIKPMFVAKVSKMGVTSILVGDGVTLGAFRQGLTEFTQNHNSIEKNKQVWRDKYSGKPTSSETDKD | failed
PGRPTMMISTTAMNTALLQWHPPKELPGELLGYRLQYCRADEARPNTIDFGKDDQHFTVTGLHKGTTYIFRLAAKNRAGLGEEFEKEIRTPEDL | not failed
MTPLPPRPGPGARLARPAAAVLLVAAIGALAAFAPGPATRALESLRQSAPAAAAALAAAYVASGPLMIPAPLLHLAAGFALGPVSGSLVAIPASTLGACAAFAAGRWLVRERAARLAARSPALAGVDAALAASGFRVVLLLRLAPLAPFTVLNYLLGATPVPLRAFALASLLGSVPGLILSVYVGSLAADAAALRATVDAGRGGPGALILPAIGTGAILLAISWVLRRALAASAGARPPPA | failed
MGWCVMAVLVDSETRVLVQGITGREGSFHAKAMLEYGTKVVAGVTPGKGGSEVHGVPVYDSVKEALAEHPEINTSIVFVPAPFAPDAVYEAVDAGIRLVVVITEGIPVHDTMRFVNYARQKGATIIGPNCPGAITPGQAKVGIMPGHIFKEGGVAVVSRSGTLTYEISYMLTRQGIGQSTVIGIGGDPIVGLSFTEALKLFQEDPQTEALVLIGEIGGDMEERAAEMIKKGEFTKPVIAYIAGRTAPPEKRMGHAGAIIMMGTGTYEGKVKALREAGVEVAETPFEVPELVRKALRR | not failed
MPIIELVILLACLVLLSNVLSHYLVAIPVSLIQVGLGLGVALLLNVQVKLQTDWFMLVFIAPMLYNDGREFPKQELWELRGAIFANAIVLVFITTILGGFLIHVLIPTIPLAVGIALAAILSPTDPIAVQSISEGVKLPKEILHLVSGESLINDASGLIGFKYALAAAVTGTFVLGEAVGDFFYISLVGLAVGLALITIIQLIRDVLRREGINDIVFNVVLQILTPFAIYFIAEEWFHASGVVAVVAAGVLSHLQNSHESEDAPELRLVTERVWNVVVYLLNGIVFLILGIELPAATQATIKGAHTNTFHAVFDVLIVWGILLLIRVAWTYAYMLFNWLRHHKKAKPSLRIAALSGLSGVRGAITMAGVFTIPTVVASGKAFPERALVLFIAAGVIIVSLVAAAAILPLMAAKSLPFVTRGSSPDEDDAVLAEGTDDGDDSSGQLPQLTYKQARIYILQLAIQNIEEHRRPANQRAAYDLILDQQFQIRRLEVASQTADELAPMLTDELELRLVALNGERAAVREMIANKQTSKLAGQVYLRRVDRREQRFLQATHRQGLPTLRSLRLLLTRAMQGIRLWLAPGDSEELRVALLDIQREASKAAIKALSQYLKQANVDEQQFDRQALYHLIVHYRNRIENAKNDHTLSRDDYEQQLHGLRIKSLGAERAGVQHLLESGQISLRTAAKLRQFINYSENLLMLNDIEADED | failed
SKSNKIFVGGIPHNCGETELREYFKKFGVVTEVVMIYDAEKQRPRGFGFITFEDEQSVDQAVNMHFHDIMGKKVEVKRAEPRDSKS | not failed
MVAKGLIRIVLDILKPHEPIIPEYAKYLSELRGVEGVNITLMEIDKETENIKVTIQGNDLDFDEITRAIESYGGSIHSVDEVVAGRTMVEEVTTPQD | failed
MDKRRVRAIKTFGAAMETYLAHTRWADSTRAVRKHIIDRDILPVFQNRLLTEIQAEDLRILCNKVKERGAPATAVQIRDIVKQVYVYAIAHGEKVVNPADSVGPSSIALEHHHHHH | not failed
MLSNRFNRWTVAAIALMGTAIATVPGRVLAQTPDHPSDTAAQFPTRNDLKSLTTSGSYLAARHASVERDATSAAAFYRSALRTDPKNNELLDRAFISSVADGDIDEAVKLAERVLTIDKTNRVARLVVGVHDLKMKKYATAQTNINQSIRGPITDLVATLLSGWAAYGAGDSKGAVATIDKLAGPEWYPLFKDLHAGMILELAGKEKDAGTRFERAYKLDDSMLRVTEAYARWLSRNKDAAAATTVYQAFDKKLARHPLIVEGLRDTKAGKKLPPLVDSAQAGAAEALYGIGATLTRRGGEDLALVYLQLSLYLQPTHPLALLSLADLYESVKRPQMAIKVYERVPSTSPLKRNAQIQLAIDLDSADRTDEAIKILKGVTSEDSKDLEAIMALGNIERGRKKFGDCGATYSQGVDVLPAGNDKANSVWYYYRGICEERSKQWAKAEADMKKALELQPDQPHVLNYLGYSWIDQGVNLDEGMKMIKRAVEQRPDDGYIVDSLGWAYYRIGNYEEAVKNLERAIDLKPEDPTINDHLGDAYWRVGRTLEAKFQWSHARDLKPEPDELPKIEAKIANGLTEDNSNSSAAQAEKKKDDGKGG | failed
MSLTGTDFHVGIVGLGSMGMGAARSCLRAGLSTWGADLNPQACANLLAEGACGAAASAREFAGVVDALVILVVNAAQVRQVLFGEDGVAHLMKPGSAVMVSSTISSADAQEIAAALTALNLNMLDAPVSGGAVKAAQGEMTVMASGSEAAFTRLKPVLDAVASNVYRISDTPGAGSTVKIIHQLLAGVHIAAAAEAMALAARAGIPLDVMYDVVTHAAGNSWMFENRMQHVVDGDYTPRSAVDIFVKDLGLVADTAKALRFPLPLASTALNMFTSASNAGYGKEDDSAVIKIFSGEGHHHHHH | not failed
MFAHQNASFPPRPEGRGGKEAVFRLTVFCIITFSSLICEAMKRAYKYRFYPTTEQAELLAQTFGCVRFVYNSILRWRTDAYYERKEKIGYLQANARLTALKKEPEFAWLNDVSCVPLQQSLRHQQTAFANFFAGRAAYPAFKSKRHKQAAEFTASAFKYRDGKLYMAKNKIPLDVRWSRPLPSVPSTVTISKDAAGRYFVSCLCEFEPASLPITSSMVGIDVGLKDLFVTDTGFRSGNPRHTAKYAARLALLQRRLSKKAKGSKNRAKAHLKVARLHAKIADCRLDALHKATRKLINDNQVVCVESLKVRNMIRNPSLSKAIADASWGELVRQLRYKGEWAGRSVVAIDQFFPSSKRCSCCGFIMKKMPLDVRKWQCPECGTDHDRDVNAARNIKAAGLAVLAHGEPVNPESLKAALEHHHHHH | failed
SCDSIREDLPRCELWLEFVFDYNMEYADAFNPQVKSVDVLVFDSDDKLLFTKSVKVAALVGGNRMSLTDELDFGSYKVLTVGSLSDRFRLSDNAGNKLVPGTTTLQQVIVSLKRETGGVNFEFQHLYFGEVVEVDHLPSNTNHKIYPVNLIRDTNRFNLALMGYEENKVDGTQYTFEIQAPENAVYSWENEPTGQGPITYVPYYTGPGEISDVVMSARLNTMRLLNRSGWDYKFIIRDANTEAEVWSYNLMTLLSIARPVSRYDGTELPFQEYLDRQSEWNLVFTVVEKNGGGFLQIGIVVGTWIHWLHGMEV | not failed
DDPEQFEVIKQQKEIIEHGIELFNKKPKRGIQFLQEQGMLGTSVEDIAQFLHQEERLDSTQVGDFLGDSARFNKEVMYAYVDQLDFCEKEFVSALRTFLEGFRLPGEAQKIDRLMEKFAARYIECNQGQTLFASADTAYVLAYSIIMLTTDLHSPQVKNKMTKEQYIKMNRGINDSKD | failed
MIMMKRYKKILLTGVLSALSCSFVHAQELYKNENAPVHERVMDLISRLTVEEKISLLRATSPGIPRLGIDKYYHGNEALHGVVRPGRFTVFPQAIGLAATWNPELQKRVATVISDEARARWNELDQGREQKEQFSDVLTFWSPTVNMARDPRWGRTPETYGEDPFLSGIMGTAFVNGLQGDDPHYLKIVSTPKHFAANNEEHNRFVCNPQISEKQLREYYFPAFEMCVKEGKAASIMSAYNALNDVPCTLNPWLLQKVLRQDWGFQGYVVSDCGGPALLVNAHKYVKTKEAAATLSIKAGLDLECGDDVYDGPLLNAYKQYMVSDADIDSAAYHVLTARMKLGLFDSGERNPYTKISPSVIGSKEHQQIALDAARQCVVLLKNQKNRLPLNADKLKSIAVVGINAGKCEFGDYSGAPVVEPVSILQGIRNRVGDRVKVVYAPWKSAADGLELIQGENFPEGLQAEYFDNTRLEGTPRVRKESWINFEPANQAPDPFLPKSPLSVRWTGKLKPTVSGRYTFSFTSDDGCRLSINNQMLIDAWQAHAVSTDSASIYLEAGKEYQLKAEYYDNRDYAIAKLQWKVPQIGKATRLDLYGEAGKAVRECETVVAVMGINKSIEREGQDRYDIQLPADQREFLQEIYKVNPNIIVVLVAGSSLAINWMDEHIPAIVNAWYPGEQGGTAVAEVLFGDYNPAGRLPLTYYKSLDELPPFDDYDITKGRTYKYFKGDVLYPFGYGLSYSSFTYSDLQVKDGGGEVTVSFRLKNTGKRNGDEVAQVYVRIPETGGIVPLKELKGFRRVPLKSGESRRVEIKLDKEQLRYWDVEKGQFVVPKGAFDVMVGASSKDIRLQTVIDL | failed
MTKIMIIGANGGIAKKLTQRLLAETDDELVLFLRRAERLAQYREQPRVTLIDGNVLDTDELATAMAPVDIVYSNVGGTDLAAQTKSILAAMARTQRQRLIFISALGAHHEVPGKFGAWNEQAIADFLPGFREAARLLSASELVYTEIRPAWLTDVAEIDYELTTGAEPFKGTEVSRASVADLVFKLMAHPENYQRVSLGVDEPGTAGDRPSWLLEHHHHHH | failed
MKLINKSIPSIRLSEFISEIEDCLAATFYGDTFWITTEISDVNKKPDKRWCYLKLIEKEGKNVTAEIGAVFWTPGYAYIEKFEKETKQLFKDGLEITCRVKVTFHKRWGLKLEIVEIDYAYTLGKLEAERQETLDRLVKENPDYVRLVGEQYYTFNKSLPLPAVVQRIALITAPESDGQRDFRQELGNNPYGYAFHVDEFVTQIQGDKAHEFIIGKLLLIEAQKEKYDVVAIVRGGGSQLDLKAFDAYDLAQRIASFPVPILTGIGHDRNTSIADLMARQEKTPTKVANVIIQRNFQFEQTVLILKERMVHTVDGLFTNAKNNLKEIKRFVKASNPLTILKKGFAIVKQDNVIITDPSAIDVGTEIQIQFDKETVQSTVTKKKKNGK | failed
MKIADGVYVHFIPTQKYKTNRIVFRMTGSLNKQTIAKRALVSQMLATANQTYPTVQSFKERLASLYGTQLSTKVSTKGLTHSVDIELTYLKDFFIPMNTSLFWEVLGFLMDCLYNPLSIVAQYQNKVFDIEKQNLMTYLDVDTENNYYYSEVQGRELYFVNEALKVPKYGRVELVEAETSFTAYQEFQSMLTKDRIDIFMVGEFDDYQVLRGLHRFPLEGRQVDLQFSYNQSYSKVVKEKIETRQTSQSILQLGYQFPCQYGDKDYFALIVFNGMLGEFAHSALFTKIREKEGLAYSIGSQFDAFTGLLEIYAGIEKSNRNQAMRGIIRELNHIKLGRFSSSLFNQTKKIIRMNALLSEDHALTLVEQHFNKVIFGDKKISLEDWLDKIEKVTKKDVCRIARQVKLQSLFFLEGVS | failed
MPINQPSGQIKLTNVSLVRLKKARKRFEVACYQNKVQDYRKGIEKDLDEVLQIHQVFMNVSKGLVANKEDLQKCFGTTNVDDVIEEIMHKGEIQLSEKERQLMLNKVNNEMLTIVSAKCINPVSKKRYPPTMIHKALQELKFSPVINKPAKLQALEAIKLLVSKQIIPIVRAKMKVKVAISEPSRQPELIEKISKLIASSPGESTKPELDPWTCTGLIDPVNYRDLMTLCDKKGTVQVLDMAVIDNTTHN | failed
DEGYWDCSVCTFRNSAEAFKCMMCDVRKGTSTRKPRPVSQ | not failed
MSRLSAAAIELFEDLIRQQVEDKAIPSISYGLVDRDGLMGAGHIQRHDRGFVMGDDTCFRIGSITKTFTAVAVMQLAEKGLVDLDVDVSEYLPGFKPQNPFAGREGGPHGAQISLRKLMSHTAGLVREPKSGHYLDAARPPLADTVAELATSTLKQDPSLGQMHYSNAGIAVAGRVIETLTRKSYAEYVSENILKPLGMDQTSSGLAPGIAERLAPADMWTLEGDSPAPVFDLGGPPAGNIYSTTSDMARYVQCLLRGGFAPDGWQIVSPGSLREMWVPIGKRASGERVANTYGLCFGVGDVDGWTSVGHGGAVYGYSSQMILLPAAGVGVLIFSTLDFSNQIGARLGVEGLRIALAERRMGTLPVRPQGLPPVAADQLVALPGHYRHDTSGEVVEVKAKAGKLFLMGEGVPLQIRPVAGSDFTIDGRIYGHGAEYPHMNLSFPAPGALVWKGVNWSRIDALPAEAVPAEIAPHLGEYGPDFNITYLSYSHGELKCLIEYFCTHGCEPVEAGRFRMRGLLYEEEILEIDAIDDHGRRGIRVGPMFLERRHAPAA | failed
